Results taken from paper doi:10.1101/788646.

Target: SlCGH1, choloylglycine hydrolase homolog Shew_0681 from Shewanella loihica PV-4 (Shewanella loihica PV-4)
Assay: SEC + other: MALDI-TOF-MS

stoichiometry N: 2
Substance: SlCGH1, choloylglycine hydrolase homolog Shew_0681 from Shewanella loihica PV-4 (enzyme)
